Experiment: soluble on expression in E. coli; label from the status in PepcDB or PDB records

Sequence | soluble on expression in E. coli
MAKKTSSKGKLPPGPTPLPFIGNYLQLNTEQMYNSLMKISERYGPVFTIHLGPRRVVVLCGHDAVKEALVDQAEEFSGRGEQATFDWLFKGYGVAFSNGERAKQLRRFSIATLRGFGVGKRGIEERIQEEAGFLIDALRGTHGANIDPTFFLSRTVSNVISSIVFGDRFDYEDKEFLSLLRMMLGSFQFTATSTGQLYEMFSSVMKHLPGPQQQAFKELQGLEDFIAKKVEHNQRTLDPNSPRDFIDSFLIRMQEEEKNPNTEFYLKNLVMTTLNLFFAGTETVSTTLRYGFLLLMKHPEVEAKVHEEIDRVIGKNRQPKFEDRAKMPYTEAVIHEIQRFGDMLPMGLAHRVNKDTKFRDFFLPKGTEVFPMLGSVLRDPRFFSNPRDFNPQHFLDKKGQFKKSDAFVPFSIGKRYCFGEGLARMELFLFFTTIMQNFRFKSPQSPKDIDVSPKHVGFATIPRNYTMSFLPRHHHH | soluble
SREEFEQILQERNELKAKVFLLKEELAYFQRELLTDHRVPSLLLEAMKVAVRKQRKKIKAKMLGT | soluble
MGSDKIHHHHHHMPNIDTFVPEKIQIGISSCLLGNQVRFDGGHKNSYYCRQEIEPFFEYTTVCPEMAIGMGTPRKSIRQIRDGDVVHIRSADGTLDVTDKLNEYSQAKVEELDYLGGYILCAKSPTCGMERVTEYKIGTNNGSKTGVGVFAKKLMERYPLLPVEEEGRLHDLPLRENFFTRVFAYNDWKQMTQSGLTKHKLMQFHSRYKYLLMAHSPKWYRDLGPILADIQDVEQTAQQYFEGFMTALKIIATRKNHTSTLQHIQGYFKKQLTAEQKEELSESILKYRQGLLPLLVPITLINHYVREFHTPYIQDQVYLNPHPEALKLRYAY | not soluble
MENKTLDHTLQGAPLWLTNFVLVYQKLSKENLQLLATIYHENVTFIDPLHTVEGFDDLYQYFENLYQNLSACDFVIEEVIWQDSQASLFWTMTYQHPKLNKGKMVTVVGTSHIKGEGDKVIYHRDFLDLGAMLYEQLPILGKLTKWIKTKAAN | not soluble
MGSDKIHHHHHHMNYPSLVWHLKRTELFADFELAELEQVAATTPYRSYQPGEVIYRMDDPADALYFVRSGLVKISKLFPNGKEAILGVVGQHDTFGELLLQPEERRPTQAEALERTTLIVLPRQELQKLLSTKPDLAMKLIRLMAARLFEAQAWTATVSAYSAPERVASLLYRLAREFGRPHSQGVELNLKLNQEDIARMVGATRETVSHSLSRLKKGGAIVRARSPIIVQMDALKAFIDQEH | not soluble
MAEGPLEAPFWRKGLLVAGLDEAGRGAWAGPIVVGAVVLPPGEYPFRDSKLLSPKARERLAEKVKEVALAFALGVAEAAEVDRLGVLKATLLAAERALLSLPLAPEALVTDYLPLPTPLPLLSPPKADEKSPTVAAASILAKVHRDRIMDELDRLYPGYGFARHKGYGTQEHQEALLALGPSPVHRKRFAPVAQAPLRFPEAP | soluble
TKRYYKSAFPVRICVIQYEMKKIYSFEEFANQVEYYVDVASDARSDFAVFPEIFTTQLMSFLEERSPSLAVQRITEYTEDYISLFTDLAVKYNVNIIGGSHFVEEEGKIYNIAYLFRRDGTIEKQYKLHITPNERKWWGISAGDQVRVFDTDCGKIAIQICYDIEFPELARIAADKGAKIIFTPFCTEDRQGYLRVRYCSQARAVENQIYTVISGTVGNLPQTENMDIQYAQSGIFAPSDFEFARDGIVGETNPNIEMVVIGDVDLEILRRQRQNGTVRQLKDRRRDIYHIQYKK | not soluble
NSAAIWGEGDVSALQSDTESGAYIEESSMVAADPLADYLSKPKLEALIASTKKQMLAAAKELDFLEAARLRDEAARLEKKLEQLTA | not soluble
MGSDKIHHHHHHKTEEHEKIEVLYETTLNLIHLLVEQGVIKQEVADEMIRKAEQKAKASQQQAREQGGQPPAGEPKKGEVRVTYVPEHIKKEIRDQLREEVVGQAKQERWGNVNATPEWLDRFTLEGDIRLREQADFFGDRNAPAANFQAIGQQIDNTTKDSHHRERIRMRLGINANVTRGVDLGLRLTTGNVNGPAVTGDLMGGSPTSTLQTLGTYNSKFSFVLDQAYLKLSPWDWLTVSGGRFPNPFFVGTVGNIYTGTIGKAPHTIPTAGVVHTDLLWDADVNFEGLAVNLHPWKKQERTIKPFLNAGIFPLQKINQSETVKAKDKWFYGAQAGIEWVPEGADTKIRLGAAYYDFENISGVRNPNFGDTLFNQTAPLFRQKGNSLFNIDNDGDPTTNLWALASDYKIANATLVADYSRFKPIHVIGTLDYARNVGYDQDRILARTGQDIKPEINAYQARLTVGYPVISERHQWQVLGFYRRSERDSMLDAFTDSNYLLGGTNHKGYTIQGLYGVAHNTWVGLRYMSYDNISGLPLSIDSVNLDLNARF | not soluble
